Changes are numbered by the printed parent chain. In names and notes the source's numbering stands.
B1: H183/L072 VL S26A (antibody, name in Kabat numbering, V domains shown)
VH: QVQLVESGGGLVQPGRSLRLSCAASGFTFSNAWMHWVRQAPGKGLEWVAQIKDKGNAYAAYYAPSVKGRFTISRDDSKNSIYLQMNSLKTEDTAVYYCHYVHYASASTVLPAFGVDAWGQGTTVTVSS
VL: DIVMTQSPLSLPVTPGEPASISCQAAQELVHMNRNTYLHWYQQKPGQAPRLLIYKVSNRFPGVPDRFSGSGSGTDFTLKISRVEAEDVGVYYCAQGTSVPFTFGQGTKLEIK
B2: H183/L072 VL A89T (antibody, name in Kabat numbering, V domains shown)
VH: B1 VH
VL: B1 VL with A26S, A94T
B3: H183/L072 VL A89E (antibody, name in Kabat numbering, V domains shown)
VH: B1 VH
VL: B1 VL with A26S, A94E
B4: H183/L072 VL A25Q (antibody, name in Kabat numbering, V domains shown)
VH: B1 VH
VL: B1 VL with A25Q, A26S
B5: H183/L072 VL A25V (antibody, name in Kabat numbering, V domains shown)
VH: B1 VH
VL: B1 VL with A25V, A26S
B6: H183/L072 VL E27aD (antibody, name in Kabat numbering, V domains shown)
VH: B1 VH
VL: B1 VL with A26S, E28D
B7: H183/L072 VL A89K (antibody, name in Kabat numbering, V domains shown)
VH: B1 VH
VL: B1 VL with A26S, A94K
B8: H183/L072 VL A25G (antibody, name in Kabat numbering, V domains shown)
VH: B1 VH
VL: B1 VL with A25G, A26S
B9: H183/L072 VL E27aF (antibody, name in Kabat numbering, V domains shown)
VH: B1 VH
VL: B1 VL with A26S, E28F
B10: H183/L072 VL A25E (antibody, name in Kabat numbering, V domains shown)
VH: B1 VH
VL: B1 VL with A25E, A26S
B11: H183/L072 VL A25M (antibody, name in Kabat numbering, V domains shown)
VH: B1 VH
VL: B1 VL with A25M, A26S
B12: H183/L072 VL E27aA (antibody, name in Kabat numbering, V domains shown)
VH: B1 VH
VL: B1 VL with A26S, E28A
B13: H183/L072 VL A25N (antibody, name in Kabat numbering, V domains shown)
VH: B1 VH
VL: B1 VL with A25N, A26S
B14: H183/L072 VL A25T (antibody, name in Kabat numbering, V domains shown)
VH: B1 VH
VL: B1 VL with A25T, A26S
B15: H183/L072 VL A89H (antibody, name in Kabat numbering, V domains shown)
VH: B1 VH
VL: B1 VL with A26S, A94H
B16: H183/L072 VL A25H (antibody, name in Kabat numbering, V domains shown)
VH: B1 VH
VL: B1 VL with A25H, A26S
B17: H183/L072 VL A25D (antibody, name in Kabat numbering, V domains shown)
VH: B1 VH
VL: B1 VL with A25D, A26S
B18: H183/L072 VL A25R (antibody, name in Kabat numbering, V domains shown)
VH: B1 VH
VL: B1 VL with A25R, A26S
B19: H183/L072 VL A89W (antibody, name in Kabat numbering, V domains shown)
VH: B1 VH
VL: B1 VL with A26S, A94W
B20: H183/L072 VL A89V (antibody, name in Kabat numbering, V domains shown)
VH: B1 VH
VL: B1 VL with A26S, A94V
B21: H183/L072 VL A25I (antibody, name in Kabat numbering, V domains shown)
VH: B1 VH
VL: B1 VL with A25I, A26S
B22: H183/L072 VL A25P (antibody, name in Kabat numbering, V domains shown)
VH: B1 VH
VL: B1 VL with A25P, A26S
B23: H183/L072 VL A89G (antibody, name in Kabat numbering, V domains shown)
VH: B1 VH
VL: B1 VL with A26S, A94G
B24: H183/L072 VL A89Q (antibody, name in Kabat numbering, V domains shown)
VH: B1 VH
VL: B1 VL with A26S, A94Q
B25: H183/L072 VL A89S (antibody, name in Kabat numbering, V domains shown)
VH: B1 VH
VL: B1 VL with A26S, A94S
B26: H183/L072 VL A89D (antibody, name in Kabat numbering, V domains shown)
VH: B1 VH
VL: B1 VL with A26S, A94D
B27: H183/L072 VL A25S (antibody, name in Kabat numbering, V domains shown)
VH: B1 VH
VL: B1 VL with A25S, A26S
B28: H183/L072 VL A25K (antibody, name in Kabat numbering, V domains shown)
VH: B1 VH
VL: B1 VL with A25K, A26S
B29: H183/L072 VL A89F (antibody, name in Kabat numbering, V domains shown)
VH: B1 VH
VL: B1 VL with A26S, A94F
B30: H183/L072 VL A89M (antibody, name in Kabat numbering, V domains shown)
VH: B1 VH
VL: B1 VL with A26S, A94M
B31: H183/L072 VL Y32Q (antibody, name in Kabat numbering, V domains shown)
VH: B1 VH
VL: B1 VL with A26S, Y37Q
notes: Dual-Ig
B32: H183/L072 VL Y32V (antibody, name in Kabat numbering, V domains shown)
VH: B1 VH
VL: B1 VL with A26S, Y37V
notes: Dual-Ig
B33: H183/L072 VL Y32W (antibody, name in Kabat numbering, V domains shown)
VH: B1 VH
VL: B1 VL with A26S, Y37W
notes: Dual-Ig

Biological target: T1, Human CD3eg linker (human)
T1 construct: Single-chain construct; also called recombinant human CD3
T1 chain: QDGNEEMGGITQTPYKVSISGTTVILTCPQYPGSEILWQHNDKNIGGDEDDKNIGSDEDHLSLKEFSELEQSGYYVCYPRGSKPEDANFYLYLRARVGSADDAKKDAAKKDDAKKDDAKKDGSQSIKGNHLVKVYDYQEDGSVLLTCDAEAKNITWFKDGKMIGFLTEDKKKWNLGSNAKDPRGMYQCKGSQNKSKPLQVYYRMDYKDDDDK
Assay: SPR; fold vs parent H183/L072

In order of falling “fold change of affinity” value:
1. B27  1.3 fold
2. B12  1.2 fold
3. B22  1.2 fold
4. B6  1.1 fold
5. B7  1.1 fold
6. B9  1.1 fold
7. B14  1.1 fold
8. B5  0.9 fold
9. B8  0.9 fold
10. B1  0.8 fold
11. B23  0.7 fold
12. B25  0.6 fold
13. B13  0.5 fold
14. B20  0.4 fold
15. B21  0.3 fold
16. B24  0.2 fold
17. B29  0.2 fold
18. B19  0.1 fold
19. B30  0.1 fold
20. B2  0 fold
21. B3  0 fold
22. B4  0 fold
23. B10  0 fold
24. B11  0 fold
25. B15  0 fold
26. B16  0 fold
27. B17  0 fold
28. B18  0 fold
29. B26  0 fold
30. B28  0 fold

biological target: T2, Human CD137 ECD (human); assay: Biacore SPR, vs parent H183/L072
T2 construct: entry includes C-terminal His-tag and biotin acceptor peptide; also called human CD137 extracellular domain; 4-1BB
T2 sequence (chain, as listed by the source limits assumed): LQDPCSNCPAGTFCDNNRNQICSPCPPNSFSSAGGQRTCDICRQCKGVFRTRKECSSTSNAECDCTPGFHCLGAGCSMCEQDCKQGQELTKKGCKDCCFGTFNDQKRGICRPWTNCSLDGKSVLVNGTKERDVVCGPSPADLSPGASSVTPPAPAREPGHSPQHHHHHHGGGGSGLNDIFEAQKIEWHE

In order of rising “fold change of affinity” value:
1. B32  0 fold
2. B31  0.2 fold
3. B33  0.7 fold

From patent US20210388087A1 (Chugai, published 2021)
